# Biological target: Red_a PSI complex (one PSI monomer of the trimer; chimeric Photosystem I of Synechocystis PCC 6803) (Synechocystis sp. PCC6803 | Synechocystis sp. PCC6803 (endogenous)) (UniProt P29254)
# Assay: cryo-EM structure; single particle Cryo-EM of the purified Red_a PSI trimer; 30 mM Tricine-NaOH pH 8, 150 mM NaCl, 0.02% DDM; 1 mg/ml chlorophyll; C1, symmetry expansion and multibody refinement with each monomer as a body
substance,measurement,value
Red_a PSI complex (one PSI monomer of the trimer; chimeric Photosystem I of Synechocystis PCC 6803) (from UniProt P29254 1-751; P29255 1-731; P32422 1-81; P72712 1-86; P37277 1-157),stoichiometry N,3

# Source: article PMC7573975
